In patent US7968297B2, “Method for identification, isolation and production of antigens to a specific pathogen” (Intercell AG, priority 2001, dated 2011):

B1: ORF2098 (protein, listed as Staphylococcus epidermidis)
chain: MIKKNKEELNDMEYLVTQENGTEPPFQNEYWNHFEKGIYVDKLSGKPLFTSEDKFESNCGWPSFSKALNDDEIVELVDKSFGMIRTEVRSEKANSHLGHVFNDGPKEKGGLRYCINSAAIQFIPYDKLEELGYGDLIKHFKK
B2: ORF2669 (protein, listed as Staphylococcus epidermidis)
chain: MHYLKKVTIYISLLILVSGCGDSKETEIKQNFNKMLNVYPTKNLEDFYDKEGYRDEEFDKDDKGTWIIRSEMTKQPKGKIMTSKGMVLHMNRNTRSTTGYYVIRKISEDNKSEIDDEEKKYPIKMVNNKIIPTQKINDNKLKNEIENFKFFVQYGSFKNSDDYKEGDIEYNPNAPNYSAQYHLSNDDYNIKQLRKRYDIKTKKTPRLLMRGAGDPKGSSVGYKNLEFTFVKNNEENIYFTDSINFNPSKGKSL
B3: ORF0442 (protein, listed as Staphylococcus epidermidis)
chain: MKKIKTISTLVAGLGIAFLGHTTHADAAENNNQQQSTYNYSTTEVSFSNSGNLYTSGQCTWYVYDKTGGKIGSTWGNANSWATAAQAAGFTVNNTPEEGAIMQSSEGAFGHVAFVESVNNDGSITVSEMNYDGGPFAISTRTISASEASSYNYIHLN
B4: ORF0355 (protein, listed as Staphylococcus epidermidis)
chain: MSKHSATLVIMFLITLLPIFQYQASAHATLEKSTPQQQGVIKDKPEAIKLEFNEPVNTKYSSVTLFDDKGKKIKDLKPITTGWSQTVVFSSEQIVNGTNTIEWHTVSADGHEVGDTFEFSVGKVRLKM
B5: ORF2694 (protein, listed as Staphylococcus epidermidis)
chain: MKHSSKIIVFVSFLILTIFIGGCGFINKEDSKEAEIKQNFNKTLSMYPTKNLEDFYDKEGYRDEEFDKDDKGTWIINSKMIVEPKGEEMEARGMVLRINRNTRTAKGNFIIKRITENNKGIPDVKDKKYPVKMEHNKIIPTKQIKDKKLKKEIENFKFFVQYGNFKNLKDYKDGEISYNPNVPSYSAQYQLNNYDNNVKQLRKRYDIPTNQAPKLLLKGTGDLKGSSVGYKHLEFTFVENKKENIYFTDSINFNPSRGN
B6: ORF2695 (protein, listed as Staphylococcus epidermidis)
chain: MRYLKKVTIYISLLILTIFIGGCGFINKEDSKETEIKQNFNKMLNVYPTKNLEDFYDKEGFRDEEFDKGDKGTWIIRSEMTKQPKGKIMTSRGMVLYINRNTRTAKGYFLIDEIKDDNSGRPIENEKKYPVKMNHNKIFPTKPISDDKLKKEIENFKFFVQYGDFKNLKDYKDGEISYNPNVPSYSAQYQLNNNDNNVKQLRKRYDIPTNQAPKLLLKGDGDLKGSSVGSKNLEFTFVENKEENIFFTDAVQFTPSEDDES
B7: ORF0979 (protein, listed as Staphylococcus epidermidis)
chain: MMIIVMLILSYLIGAFPSGLIIGKLFFKKDIRQYGSGNTGATNSFRVLGRPAGFIVTFLDIFKGFITVFFPLWFPVHADGVISTFFTNGLIVGLFAILGHVYPIYLKFNGGKAVATSAGVVLGVNPILLLILAIIFFSVLKIFKYVSLSSIIAAISCVIGSIIIHDYILLAVSGIVSIILIIRHKSNIVRIFKGEEPKIKWM
B8: ORF2260 (protein, listed as Staphylococcus epidermidis)
chain: MARIATKLGYPESNSFVTNTVIEFVLHNEAYPRLYRIKTRDTNLIKISQANEISRQITNGTMTLEEAKYQLEEIYVAKRDSSLPFKGIAAAIIATSFLYLQGGRLVDIITAVLAGTIGYLVVEILDRKLHAQFIPEFIGSLVIGIISVIGHAFVPSGDLATIIIAAVMPIVPGVLITNAIQDLFGGHMLMFTTKSLEALVTAFGIGAGVSSILILV
B9: ORF2671 (protein, listed as Staphylococcus epidermidis)
chain: VKHSKKLLLCISFLLITFFIGGCGFMNKDDGKETEIKQNFNKMLNVYPTKNLENFYDKEGYRDEEFDKDDKGTWIVHSKMVIEPKGKNMESRGMVLFINRNTRTSKGYFIVNEIEKDRKGRPINNKKKYPVKMKNNKIIPTKPISNDKLKKEIENFKFFVQYGNFKDIKNYKDGDISYNPNVPSYSAKYQLSNNEYNVQQLRKRYDIPTKKVPKLLLKGDGDLKGSSVGSKNLEFTFIENKEENIYFTDSVLFSPSEDNES
B10: ORF2673 (protein, listed as Staphylococcus epidermidis)
chain: MRYLKKVTIYISLLILVSGCGNGKETEIKQNFNKMLDMYPTKNLEDFYDKEGYRDEEFDKKDKGTWIVGSTMTIEPKGKYMESRGMFLYINRNTRTTKGYYYVRKTTDDSKGRLKDDEKRYPVKMEHNKIIPTKPIPNDKLKKEIENFKFFVQYGDFKNLKDYKDGDISYNPNVPSYSAKYQLSNNDYNVKQLRKRYDIPTNQAPKLLLKGDGDLKGSSIGSKSLEFTFIENKEENIFFSDGVQFTPSEDSES
B11: CRF2155 (protein)
chain: ILSAALSTPALLNNTSILPNCSFMSDTKSTTCCSLALSTLYAFALSPLLLILSTVSDTASAMSTANTYAPY
B12: CRF2729 (protein)
chain: GMKMISISDEINCLICCNCVGLCSFISSAKYIFWISISSNTVAKTSIKRGKFLVTARSIRR
B13: CRF2349 (protein)
chain: SIIVNTVSKCIKVRLVGISIATTFLNVACGFSKIRRANFSIACADVRSETPIAKTSLDKTSSSPPSILNGQSRSNQIGIFASLNLG

These molecules were tested against T1, DRA1*0101/DRB1*0401 (Homo sapiens, UniProt P01903+P01911, A100K/A169T/F76Y/I96L/K127E/L162R/M171V/N62H/P40V/Q125Y/R42H/S133A/S149N/S66Y/V115G/V209L/W38E) (assay: Competition assay with soluble HLA class II molecules). Details: binding to soluble DRA1*0101/DRB1*0401 molecules.
T1 construct: using recombinant soluble versions of HLA class II molecules; made in house; host or cells: SC-2 cells
Design: key: +, + +: binding; +, + +: binding; −: no competition up to 200 μM test peptide
Procedure: Binding of peptides to HLA molecules on the surface of antigen-presenting cells is a prerequisite for activation of T cells. Binding was assessed in vitro by two independent biochemical assays using recombinant soluble versions of HLA class II molecules. One assay measures the concentration dependent competitive replacement of a labeled reference peptide by the test peptides. The second assay is based on the formation of SDS-stable complexes upon binding of high- and intermediate affinity ligands.
Soluble HLA molecules (DRA1*0101/DRB1*0101 and DRA1*0101/DRB1*0401) were expressed in SC-2 cells and purified as described in Aichinger et al., 1997. For the competition assay (Hammer et al. 1995) HLA molecules were applied between 50 and 200 ng/well. For DRB1*0101 biotinilated indicator peptide HA (PKYVKQNTLKLAT—SEQ ID NO:602, Valli et al. 1993) was used at 0.008 μM. […] Molecules, indicator and test peptides were incubated overnight at 37° C., pH 7. HLA:peptide complexes obtained after incubation with serial dilutions of test and reference peptides (the known high-affinity binders HA and UD4 were used as positive control) were captured in ELISA plates coated with antibody L243, which is known to recognize a conformational epitope formed only by correctly associated heterodimers. Incorporated biotin was measured by standard colorimetric detection using a streptavidin-alkaline phosphatase conjugate (Dako) with NBT/BCIP tablets (Sigma) as substrate and automated OD reading on a Victor reader (Wallac).
In the case of YKVVKGVKKYFSFSQSNGYKIG [p284-305], the binding is reported as “+”.
For MHVPSFQNNTTATHQN [p254-270], the binding was “+”.
With “VIVSTLFLISQHQAQA (VIVSTLFLITSQHQAQA; listed as Staphylococcus aureus) [p24-40]” the binding was “− (−: no competition up to 200 μM test peptide)”.
For “GESLNIIASRYGVSVDQLMAANNLRG (listed as Staphylococcus aureus) [p96-121]”, the binding was “− (−: no competition up to 200 μM test peptide)”.
With TIFRYVEGKSLYE [p416-428] the binding was “− (−: no competition up to 200 μM test peptide)”.
For AGGIFYNQTNQQLLVLCDGMGGHK [p23-47], the binding was “− (−: no competition up to 200 μM test peptide)”.
With IKINHFCVVPQINSFKVIPPYGHNS [p226-251] the binding was “− (−: no competition up to 200 μM test peptide)”.
For FMVEGQRVRTISTYAINNTRCTIF [p395-418], the binding was “− (−: no competition up to 200 μM test peptide)”.
ALVFEKSVVIANVGDSRA [p107-124] was tested, and the binding was “− (−: no competition up to 200 μM test peptide)”.
For “PKLRSFYSIRKSTLGVASVIVST (listed as Staphylococcus aureus) [p6-28]”, the binding was “+”.
With “NNLRGYLIMPNQTLQIPNG (NNLRGYLIMPNQTLQIPNGG; listed as Staphylococcus aureus) [p117-136]” the binding was “− (−: no competition up to 200 μM test peptide)”.
For KDYAYIRFSVSNGTKAVKIVSSTHFNN [p218-244], the binding was “+”.
For MTLPLMALLALSSIVAFVLPRKRKN [p623-647], the binding was “− (−: no competition up to 200 μM test peptide)”.
In the case of “FPYIPDKAVYNAIVKVVVANIGYEGQ (FPYIPDKAVYNAIVKVVVANIGYEGQY; listed as Staphylococcus aureus) [p620-646]”, the binding is reported as “+”.
For IKLVSYDTVKDYAYIRFSVSNGTKA [p209-233], the binding was “+”.
For YDYKYFYSYKVVKGVKKYFSFSQS [p275-299], the binding was “+”.
KEFKSFYSIRKSSLGVASVAISTL [p6-30] was tested, and the binding was “+ +”.

Each molecule was assayed on antibodies in human patient sera (assay: Western blot reactivity of selected clones with human sera). Details: clone and its aa region are named in the cell; prefix A/B/C = screen the clone came from.
Assay type: binding
Procedure: For Western blot analysis approximately 10 to 20 μg of total cellular protein was separated by 10% SDS-PAGE and blotted onto HybondC membrane (Amersham Pharmacia Biotech, England). The LamB or FhuA fusion proteins were detected using human serum as the primary antibody at a dilution of 1:5000 and anti human IgG antibodies coupled to HRP at a dilution of 1:5000 as secondary antibodies. Detection was performed using the ECL detection kit (Amersham Pharmacia Biotech, England). Alternatively, rabbit anti FhuA or mouse anti LamB antibodies were used as primary antibodies in combination with the respective secondary antibodies coupled to HRP for the detection of the fusion proteins.
Subsequent sequencing of a larger number of randomly picked clones (500 to 800 per screen) led to the identification of the gene and the corresponding peptide or protein sequence that was specifically recognized by the human patient serum used for screening. The frequency with which a specific clone is selected reflects at least in part the abundance and/or affinity of the specific antibodies in the serum used for selection and recognizing the epitope presented by this clone. […] All clones that are presented in Table 2 have been verified by Western blot analysis using whole cellular extracts from single clones to show the indicated reactivity with the pool of human serum used in the screen.
10 to 30 different human patient sera were subsequently used to evaluate the presence of antibodies against the selected immunogenic peptide sequences that have been discovered in the screen according to the present invention. To eliminate possible cross-reactivity with proteins expressed by E. coli, all sera were pre-adsorbed with a total cellular lysate of E. coli DHa cells expressing FhuA protein.
This analysis is summarized in Table 2 and as an example shown in FIG. 4 and is indicative of the validity of the present screen.
For B1, the “Serum reactivity with relevant region (positive/total)” value (“Serum reactivity … (positive/total)” below) was “A: SEFAQ50(15-57): 5/12”.
For B2, the “Serum reactivity … (positive/total)” value was “B: SELAE27(22-51): 5/12”.
With B3 the “Serum reactivity … (positive/total)” value was “C: GSBBM60(65-84): 1/1”.
With B4 the “Serum reactivity … (positive/total)” value was “C: GSBBL39(63-86): 1/1”.
In the case of B5, the “Serum reactivity … (positive/total)” value is reported as “B: SELAB26(27-60): 5/12”.
In the case of B6, the “Serum reactivity … (positive/total)” value is reported as “A: SEFAH77(22-66): 6/12”.
For B7, the “Serum reactivity … (positive/total)” value was “B: SELAH01(26-49): 5/12”.
For B8, the “Serum reactivity … (positive/total)” value was “B: SELAG77(123-142): 12/12”.
For B9, the “Serum reactivity … (positive/total)” value was “B: SELAD21(36-61): 5/12”.
With B10 the “Serum reactivity … (positive/total)” value was “B: SELAE25(23-54): 2/12”.

Same assay, conditions: positive sera / total sera tested; clone and its aa region named in the cell
With B11 the “Serum reactivity … (positive/total)” value was “SALAQ54(54-66): 1/12”.
B12 was tested, and the “Serum reactivity … (positive/total)” value was “SALAQ25(40-56): 1/1”.
For B13, the “Serum reactivity … (positive/total)” value was “GSBXC92(52-67): 2/11”.
